Data published in the supplement of paper PMC7125110.
± gives the standard error. This sample holds only a part of the variants without activity.

B1: glmS ribozyme (parent)
chain: AUAAAAGCGCCAGAACUACAGAAAUGUAGUUGACGAGGAGGAGGUUUAUCGAAUUUUCGGCGGAUGCCUCCAAA

Assays:
Details in all cases: with glucosamine-6-phosphate
[1] = variants of: B1; assay: self-cleavage kobs at 640 uM GlcN6P; higher = faster cleavage; RNA array
Summary of the method: (§1)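 Barcoded ribozyme variants on sequenced MiSeq chips were transcribed in situ by E. coli RNA polymerase and followed at 37 °C through a hybridised Cy3 probe. Glucosamine-6-phosphate at 40 μM to 10 mM in HEPES/KCl/Mg(OAc)2 buffer was flowed in, and tiles were imaged over ~14 h. Signals were normalised to baseline and to non-cleaving reference variants, and per-tile medians were fit to one- or two-exponential decays to give kobs. Weighted Michaelis–Menten fits across concentrations gave kcat and KM.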

[2] = variants of: B1; assay: self-cleavage kobs at 2500 uM GlcN6P; higher = faster cleavage; RNA array
Summary of the method: as §1

[3] = variants of: B1; assay: self-cleavage kobs at 10000 uM GlcN6P; higher = faster cleavage; RNA array
Summary of the method: as §1

Variant	self-cleavage kobs at 640 uM GlcN6P [1]	self-cleavage kobs at 2500 uM GlcN6P [2]	self-cleavage kobs at 10000 uM GlcN6P [3]
AUAAAAGCGCCAGAACUACAGAAAUGUAGUUGUCGAGGAUGAGGUUUAUCGUAUUUGCGGCGGAUGCCUCCAAA [A33U G40U A52U U57G]	< 1e-05 s⁻¹	< 1e-05 s⁻¹	
AUAAAAGUGCCAUUACUACAGAAAUGUAGUUGACGAGGAGGAGGUUUAUCGAAUUUUCGGCGGAUGCCUCCAAA [C8U G13U A14U]	< 1e-05 s⁻¹		
AUAAAAGCGGCAGGACUACAGAAAUGUAGUAGAUGAGGAGGAGGUUUAUCCAUCUUUCGGCGGAUUCCUCCAAA [C10G A14G U31A C34U G51C A53U U54C G66U]	< 1e-05 s⁻¹		
AUAAAAACGCAAGAACUACAGAAAUGUAGUUGAUGCGGAGGAGGAUUAUCGAAUUUUCGGCGGAUGCCUCCAAA [G7A C11A C34U A36C U45A]	< 1e-05 s⁻¹	< 1e-05 s⁻¹	< 1e-05 s⁻¹
AUAAAAGCGCCAGAACUACAGAAAUGUAGUUGAAGAGGAGGAGGUUUACCGAAUUUUAGGCGGAUGCCUCCAAA [C34A U49C C58A]	< 1e-05 s⁻¹		
AUAAAUGCGCCAGAACUACAGAAAUGUAUUUGACGAGGAGGAGGUUUAUCGCAUUUUCGGCGGAUGCCUCCAAA [A6U G29U A52C]	< 1e-05 s⁻¹		
AUAAAAGCGCCAGAAUUACAGAAAUGUAGUUGCCGAGGAGGAGGUUUAUCGAAUUUUCGGCGGAUGCCUCCAAA [C16U A33C]	9.7e-05 ± 3.1e-05 s⁻¹	8.5e-05 ± 2.1e-05 s⁻¹	0.000247 ± 3.7e-05 s⁻¹
AUAAAACCGCCGGAACUACAGAAAUGUAGUUGACGAGGAGGAGGUGAAUCGAAUUUUCGGCGGAUGCCUCCAAA [G7C A12G U46G U47A]	< 1e-05 s⁻¹		
AUAAAAGCGCCAGAACUACAGAAAUGUAGUUGACGAGGAGUAGGGUAAUCGAAUUUUCGGCGGAUGCCUCUAAA [G41U U45G U47A C71U]	5.62e-05 ± 2.2e-05 s⁻¹		
AUAAAAGCGCCAGAAUUACAGAAAUGUAGUUUACGAGGAGGAGGUUUAUCGAAUUUUGGGCGGAUGCCUCCAAA [C16U G32U C58G]	0.00017 ± 3.4e-05 s⁻¹		
AUAAAAGCUCGAGAACUACAGAAAUGUAGUUGACGAGGAGUAGGUUUAUCGAAUUUUCGGCGGAUGCCUCCAAA [G9U C11G G41U]	< 1e-05 s⁻¹		
AUAAAAGCGCCGGAACUACAGAAAUGUAGUUGACGAGGGGGAGGUUUAUCGAAUUUUCGGCGGAUGCCUGCAAA [A12G A39G C70G]	0.00011 ± 3.5e-05 s⁻¹		
AUAAAAGCGCUAGAACUACAGAAAUGUAGUUGACGAGGAGGAGGUUUAUCGAAUUUUCGACGGAUGCCUCCAAA [C11U G60A]	< 1e-05 s⁻¹	< 1e-05 s⁻¹	< 1e-05 s⁻¹
AUAAAAGCGCCAGAACUACAGAAAUGUAGUAGUCGAGGAGGAGGUUUGUCGAAUUUUCGGCGGAUGCCUCCAAA [U31A A33U A48G]	< 1e-05 s⁻¹	< 1e-05 s⁻¹	
AUAAAAGCGCCAGCACUACAGAAAUGUAGUUGACGAGGAUGAGGUUUAUCGUAUUUUCGGCGGAUGCCUCCAAA [A14C G40U A52U]	< 1e-05 s⁻¹		
AUAAAAGUGUCAGUACUACAGAAAUGUAGUUGACGAGGAGGAAGUUUAUCGAAUUUUCGGCGGAUGCCUCCAAA [C8U C10U A14U G43A]	< 1e-05 s⁻¹	< 1e-05 s⁻¹	
AUAAAAGCGCCAGAACUACAGAAAUGUAGUUGACGAGGAGGAGGUUUAUCCAAAUUACGGCGGAUGCCUCCAAA [G51C U54A U57A]	< 1e-05 s⁻¹	< 1e-05 s⁻¹	
AUAAAAGCGCCAGAACUACAGAAAUGUAGUUGACGAAGAGAAGGUUUAUCGAAUUUUCGGCGGAUGCCUUCAAA [G37A G41A C70U]	0.00119 ± 0.00026 s⁻¹	0.00206 ± 0.00053 s⁻¹	
AUAAAAGCGGCAGAGCUACAGAAAUGUAGUUGACGAGGUGGAGGUUUAUCGAAUUUUCGCCGGAUGCAUCCAAA [C10G A15G A39U G60C C68A]	< 1e-05 s⁻¹	< 1e-05 s⁻¹	
AUAAAUGCGCGAGCACUACAGAAAUGUAGUUGACGAGGAGUAGGUUUAUCGAAUUUUCGGCGGAUGCCUCCAAA [A6U C11G A14C G41U]	< 1e-05 s⁻¹	< 1e-05 s⁻¹	
AUAAAAGCGCCAGAACUACAGAAAUGUAGUUGACGAGGAGAAGGUUUAUCCAAUUUUCGGCGGCUGCCUCCAAA [G41A G51C A64C]	< 1e-05 s⁻¹		
AUAAAAGCGCCAGAACUACAGAAAUGUAGUUGAUGAGGAGGAGGUUUAUCGAUUUUUCGGCGGAUGCCUGCAAA [C34U A53U C70G]	0.000145 ± 4.1e-05 s⁻¹		
AUAAAGGCGCCAGAAAUACAGAAAUGUAGUUGACGAGGAGGAGUAUUAUCGAAUUUUCGGCGGAUGCCUCCAAA [A6G C16A G44U U45A]	< 1e-05 s⁻¹	< 1e-05 s⁻¹	
AUAAAAGCGCCAGAACUACAGAAAUGUAGGUGAAGAGGAGGAGGUUAAUCGAAUUUUCGGCGGAUGCCUCCAAA [U30G C34A U47A]	< 1e-05 s⁻¹		

Variant	self-cleavage kobs at 640 uM GlcN6P [1]	self-cleavage kobs at 2500 uM GlcN6P [2]	self-cleavage kobs at 10000 uM GlcN6P [3]
AUAAAAGCGCCAGAACUACAGAAAUGUAGUUGACGAGGAGGAGGUUUAUCGAAUUUUCGGCCGUUUCCUCCAAA [G62C A64U G66U]	< 1e-05 s⁻¹	< 1e-05 s⁻¹	
AUAAAAGUGCCUGAACUACAGAAAUGUAGUUGACGAUGAGGAGGUUUAUCGAAUUUUCGGAGGUUGGCUCCAAA [C8U A12U G37U C61A A64U C67G]	0.000544 ± 0.00022 s⁻¹		
AUAAAAGCGGCAGAACUACAGAAAUGUAGUUGACGAGGAGGAGCUUUAUCGAAUUUUCGGCGGAUGCCUCCAAA [C10G G44C]	< 1e-05 s⁻¹	< 1e-05 s⁻¹	
AUAAAAGCGCCAGAACUACAGAAAUGUAGUUGCCGAGGAGGAGGUUCAUCGAAUUUUCGGCGGAGGCCUCCAAA [A33C U47C U65G]	< 1e-05 s⁻¹	< 1e-05 s⁻¹	
AUAAAAGCGCCGGAACUACAGAAAUGUAGUUGACGAGGAGGAGGUUUAUCGAAUUUUCGGCGACUGCCUCCAAA [A12G G63A A64C]	< 1e-05 s⁻¹		
AUAAAAGCGCCAGUACUACAGAAAUGUAGUUGACAAGGACGAGGUUUAUCGAAUUUUCGGCGGAUGCCUCCAAA [A14U G35A G40C]	< 1e-05 s⁻¹		
AUAAAAGCGCCAGAACUACAGAAAUGUAGUUAACGAGGAGGAAGUUUAUCGAAUUUUCGGCGAGUGCCUCCAAA [G32A G43A G63A A64G]	< 1e-05 s⁻¹	< 1e-05 s⁻¹	
AUAAAAGCGCAAGAAGUACAGAAAUGUAGUUGACGAGGAGGUGGUUUAUCGAAUUGUCGGCGGAUGCCUCUAAA [C11A C16G A42U U56G C71U]	< 1e-05 s⁻¹	< 1e-05 s⁻¹	
AUAAAAGUGCCAUAACUACAGAAAUGUAGUUGACGAGGAGGAGGUUCAUCCAAUUUUCGGCGGAUGCCUCCAAA [C8U G13U U47C G51C]	< 1e-05 s⁻¹		
AUAAAAGCGCCAGGAUUACAGAAAUGUAGUUGACGAGGAGAAGGUUUAUCGAAUUUUCGGCGGAUGCCUCCAAA [A14G C16U G41A]	0.00178 ± 0.00032 s⁻¹	0.0028 ± 0.00078 s⁻¹	
AUAAAAGCGCCAGAACUACAGAAAUGUAGUUGACGAGGAUGAGGUUUAUCGAAUUUUCGGGGGAGGCCUCCAAA [G40U C61G U65G]	< 1e-05 s⁻¹	< 1e-05 s⁻¹	
AUAAAAGCGCCAGAACUACAGAAAUGUAGUUGACGAGGAGGAGGUUUAUCGAAUUUUCGUCGGAUGCCUCAAAA [G60U C71A]	< 1e-05 s⁻¹	< 1e-05 s⁻¹	< 1e-05 s⁻¹
AUAAAAGCGCCAGAUCUACAGAAAUGUAGUUGGCGAGGAGGAGGUUUAUCGAAUUUUCGGCGGGUGACUAUAAA [A15U A33G A64G C67A C70A C71U]	9.67e-05 ± 3.1e-05 s⁻¹		
AUAAAAGCGCCAGAACUACAGAAAUGUAGUUGAUGAGGAGGAGGUUUAUCGAAUUUUGGGCGGAGGCCUCCAAA [C34U C58G U65G]	< 1e-05 s⁻¹		
AUAAAAACGCCAGAACUACAGAAAUGUAGUUGACGACGUGGAGGUUGAUCGAAUUUUCGGCGGAUGCCUCCAAA [G7A G37C A39U U47G]	< 1e-05 s⁻¹		
AUAAAAGCGCAAGAACUACAGAAAUGUAGUAGACGAGGAGGAGGUUUAUCGAAUUUUCGACGGAUGCCUCCAAA [C11A U31A G60A]	< 1e-05 s⁻¹		
AUAAAAGCGCCAGAACUACAGAAAUGUAGUUGACGAGGAGGUGGUGUCUCGAAUUUUCGGCGGAUGCCUCCAAA [A42U U46G A48C]	< 1e-05 s⁻¹		
AUAAAAGAGCCAGAACUACAGAAAUGUAGUUGACGUGGAGGAGGCUUAUCGAAUUUACGGCGGAUGCCUCCAAA [C8A A36U U45C U57A]	< 1e-05 s⁻¹		
AUAAAAACGCCAGAACUACAGAAAUGUAGUUGACGAGAAGGAGGUUUAUCGAAUUUUCGGCGUAUGCCUGCAAA [G7A G38A G63U C70G]	0.000112 ± 3.6e-05 s⁻¹		
AUAAAAGCGCCAGAACUACAGAAAUGUAGGUGACGUGGAGGCGGUUUAUCGAAUUUUCGGCGGUUGGCUCCAAA [U30G A36U A42C A64U C67G]	< 1e-05 s⁻¹	< 1e-05 s⁻¹	
AUAAAAGCGCCCGAACUACAGAAAUGUAGUUAACGAGGAGGAGGUUUAUCGAAUUUUCGGCGGGUGCCUCAAAA [A12C G32A A64G C71A]	< 1e-05 s⁻¹		
AUAAAAGCGCCAGAACUACAGAAAUGUAGUUGACGAGGACCAGGUUUAUCGAAUUUUCGGCGGAUGCAUCCAAA [G40C G41C C68A]	< 1e-05 s⁻¹		
AUAAAAGCGCCAGAACUACAGAAAUGUAGUUGUCUAGGAGGAGGUUUAUCGAAAUUUCGGCGGAUGCCUCCAAA [A33U G35U U54A]	< 1e-05 s⁻¹		< 1e-05 s⁻¹
AUAAAUGCGCCAGAACUACAGAAAUGUAGUUGACGCGGAGGAGGUUUAUCCAAUUUUCGGCGGAUGCCUCCAAA [A6U A36C G51C]	< 1e-05 s⁻¹	< 1e-05 s⁻¹	
